Like-named read-outs stand apart in the source and are kept apart here. Numbered stars: 1 amine (or outer) side, 2 acyl side, 3 side chain; on linkers, the order of the positions; unused ones are H or OH. Bridge positions count the residues as written; N and C are the ends. Square brackets hold non-standard residues; d marks the D form. Side chains are listed from the residue outwards. Ends that are not written are not given here. Peptide text beside a SMILES is read from it. * marks the point of attachment. PEG 40 kDa = PEG of 40 kDa covalently attached to Cys; γGlu = O=C(O)[C@H](CCC(=O)[*:2])N[*:1]; C16 acyl = 16 carbon fatty acyl group; PEG40kDa = 40 kDa polyethylene glycol; Palmitoyl = CCCCCCCCCCCCCCCC(=O)*; Myristoyl = CCCCCCCCCCCCCC(=O)*; Ac‑Cys = acetylated cysteine; Aib = CC(C)(N)C(=O)O
Assays:
[1] = target: T1, GLP-1 receptor (Homo sapiens, UniProt P43220); assay: cAMP induction at the GLP-1 receptor (agonist activity), firefly luciferase reporter assay in HEK293 cells; assay type: cell-based; details: for GLP-1R relative activity: relative to standard
T1 construct: expressed in transfected cells; host or cells: HEK293
Description: (§1) HEK293 cells co-transfected with the receptor and luciferase gene linked to a cAMP responsive element were employed for the bioassay.
(§2) All EC50s and IC50s are reported in the following examples in nM, unless indicated otherwise.

[2] = target: T2, glucagon receptor (Homo sapiens, UniProt P47871); assay: cAMP induction at the glucagon receptor (agonist activity), luciferase reporter assay in HEK293 cells; assay type: cell-based; set-up: expressed in transfected cells; host or cells: HEK293; details: for EC50: read-out: GR EC50; for GR relative activity: relative to standard
Description: as §1, §2

[3] = target: T3, GIP receptor (Homo sapiens, UniProt P48546); assay: cAMP induction at the GIP receptor (agonist activity), luciferase reporter assay in HEK293 cells; assay type: cell-based; details: for GIPR relative activity: relative to standard; for EC50: read-out: GIPR EC50
T3 construct: expressed in transfected cells; host or cells: HEK293
T3 sequence (P48546 22-466): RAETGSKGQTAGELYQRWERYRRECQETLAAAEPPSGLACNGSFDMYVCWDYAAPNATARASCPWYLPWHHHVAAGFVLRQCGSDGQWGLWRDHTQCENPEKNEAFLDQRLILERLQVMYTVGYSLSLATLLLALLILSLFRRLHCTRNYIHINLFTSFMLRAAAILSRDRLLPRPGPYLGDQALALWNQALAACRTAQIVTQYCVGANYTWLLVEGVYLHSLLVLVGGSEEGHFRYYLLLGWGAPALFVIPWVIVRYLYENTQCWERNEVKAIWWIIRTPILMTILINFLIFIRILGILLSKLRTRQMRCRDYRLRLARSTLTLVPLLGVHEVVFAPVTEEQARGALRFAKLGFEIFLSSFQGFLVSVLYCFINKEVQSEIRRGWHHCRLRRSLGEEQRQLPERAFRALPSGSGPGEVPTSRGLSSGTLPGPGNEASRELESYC
Description: as §1, §2

[4] = target: T2, glucagon receptor; assay: cell-based; details: Glu ICso (nM), Table A; Glu = glucagon
Description: as §1, §2

[5] = Table 7, relative to the native ligand of the receptor
[6] = Table 6, relative to the native ligand at the receptor

T2 sequence (P47871 26-477): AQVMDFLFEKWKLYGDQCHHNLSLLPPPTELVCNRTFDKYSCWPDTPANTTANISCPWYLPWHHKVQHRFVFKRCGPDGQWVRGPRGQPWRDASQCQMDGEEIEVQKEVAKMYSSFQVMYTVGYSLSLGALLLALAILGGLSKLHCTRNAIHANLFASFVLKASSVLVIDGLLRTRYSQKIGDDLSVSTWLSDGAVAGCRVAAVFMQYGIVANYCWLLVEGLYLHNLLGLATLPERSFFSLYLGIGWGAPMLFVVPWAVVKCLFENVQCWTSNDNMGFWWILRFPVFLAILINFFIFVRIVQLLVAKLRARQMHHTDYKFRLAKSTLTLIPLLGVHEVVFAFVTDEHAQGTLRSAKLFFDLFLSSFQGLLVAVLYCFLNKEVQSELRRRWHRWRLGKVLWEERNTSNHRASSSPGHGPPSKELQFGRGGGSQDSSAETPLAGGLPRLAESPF
T1 sequence (P43220 24-463): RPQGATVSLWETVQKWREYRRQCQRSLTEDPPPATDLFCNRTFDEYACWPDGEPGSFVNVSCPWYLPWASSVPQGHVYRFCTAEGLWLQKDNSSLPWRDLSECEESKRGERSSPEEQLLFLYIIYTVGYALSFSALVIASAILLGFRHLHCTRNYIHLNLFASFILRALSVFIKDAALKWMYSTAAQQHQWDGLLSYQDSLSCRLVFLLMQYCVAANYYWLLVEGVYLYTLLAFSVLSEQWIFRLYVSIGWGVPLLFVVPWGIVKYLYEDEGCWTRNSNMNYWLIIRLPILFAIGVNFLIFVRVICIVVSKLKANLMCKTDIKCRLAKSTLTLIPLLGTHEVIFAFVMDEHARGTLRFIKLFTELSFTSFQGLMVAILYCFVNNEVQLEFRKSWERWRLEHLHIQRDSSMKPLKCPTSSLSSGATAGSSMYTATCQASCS

Q3K16AIB20K10(rErE-C16) (Y[Aib]QGTFTSDK([γGlu-γGlu-C16 acyl])SIYLDKQAA[Aib]EFVNWLLAGGPSSGAPPPS-NH2) [MT-384]
% Relative Activity GLP-1R [1, 5]: 349%
% Relative Activity at GR [2, 5]: 228%
% Relative Activity at GIPR [3, 5]: 808%

Chimera2-CEXK40(C16) (H[Aib]QGTFTSDYSKYLDEQAAKEFIAWLMNGGPSSGAPPPSK(Palmitoyl)-NH2) [MT-364]
% Relative Activity GLP-1R [1, 5]: 355%
% Relative Activity at GR [2, 5]: 350%
% Relative Activity at GIPR [3, 5]: 16%

mt-227: as mt-219 but modified Lys at position 40 and Asn at position 24; SEQ ID NO: 360 (Y[Aib]QGTFTSDYSIYLDEQAAKEFVNWLLAGGPSSGAPPPSK([Arg-Ac‑Cys-PEG40kDa])-NH2; lactam 16-20)
GLP-1R relative activity ([1]; Table 5): 36.25%
EC50 ([2]; Table 5): 4.24 nM
GR relative activity ([2]; Table 5): 1.27%
GIPR relative activity ([3]; Table 5): 1.29%

E3C24-PEG-K10-C14 (Y[Aib]EGTFTSDK(Myristoyl)SIYLDKQAA[Aib]EFVC(PEG 40 kDa)WLLAGGPSSGAPPPS-NH2) [MT-341]
% Relative Activity GLP-1R ([1]; Table 9): 14.6%
% Relative Activity at GR ([2]; Table 9): 0.01%
% Relative Activity at GIPR ([3]; Table 9): 27.4%

CC[C@H](C)[C@H](NC(=O)[C@H](CO)NC(=O)[C@H](Cc1ccc(O)cc1)NC(=O)[C@H](CC(=O)O)NC(=O)[C@H](CO)NC(=O)[C@@H](NC(=O)[C@H](Cc1ccccc1)NC(=O)[C@@H](NC(=O)CNC(=O)[C@H](CCC(=O)O)NC(=O)C(C)(C)NC(=O)[C@@H](N)Cc1ccc(O)cc1)[C@@H](C)O)[C@@H](C)O)C(=O)N[C@@H](Cc1ccc(O)cc1)C(=O)N[C@@H](CC(C)C)C(=O)N[C@@H](CC(=O)O)C(=O)N[C@@H](CCCCN)C(=O)N[C@@H](CCC(N)=O)C(=O)N[C@@H](C)C(=O)N[C@@H](C)C(=O)NC(C)(C)C(=O)N[C@@H](CCC(=O)O)C(=O)N[C@@H](Cc1ccccc1)C(=O)N[C@H](C(=O)N[C@@H](CC(N)=O)C(=O)N[C@@H](Cc1c[nH]c2ccccc12)C(=O)N[C@@H](CC(C)C)C(=O)N[C@@H](CC(C)C)C(=O)N[C@@H](C)C(=O)NCC(=O)NCC(=O)N1CCC[C@H]1C(=O)N[C@@H](CO)C(=O)N[C@@H](CO)C(=O)NCC(=O)N[C@@H](C)C(=O)N1CCC[C@H]1C(=O)N1CCC[C@H]1C(=O)N1CCC[C@H]1C(=O)N[C@@H](CO)C(=O)N[C@@H](CCC(=O)O)C(N)=O)C(C)C [mt-396]
EC50 ([1]; Table 4, read-out: GLP-1R EC50): 0.0093 nM
GLP-1R relative activity ([1]; Table 4): 262.27%
EC50 ([2]; Table 4): 2.9 nM
GR relative activity ([2]; Table 4): 1.03%
EC50 ([3]; Table 4): 0.0034 nM
GIPR relative activity ([3]; Table 4): 402.69%

CC[C@H](C)[C@H](NC(=O)[C@H](CO)NC(=O)[C@H](Cc1ccc(O)cc1)NC(=O)[C@H](CC(=O)O)NC(=O)[C@H](CO)NC(=O)[C@@H](NC(=O)[C@H](Cc1ccccc1)NC(=O)[C@@H](NC(=O)CNC(=O)[C@H](CCC(=O)O)NC(=O)C(C)(C)NC(=O)[C@@H](N)Cc1ccc(O)cc1)[C@@H](C)O)[C@@H](C)O)C(=O)N[C@@H](Cc1ccc(O)cc1)C(=O)N[C@@H](CC(C)C)C(=O)N[C@@H](CC(=O)O)C(=O)N[C@@H](CCCCN)C(=O)N[C@@H](CCC(N)=O)C(=O)N[C@@H](C)C(=O)N[C@@H](C)C(=O)NC(C)(C)C(=O)N[C@@H](CCC(=O)O)C(=O)N[C@@H](Cc1ccccc1)C(=O)N[C@H](C(=O)N[C@@H](CC(N)=O)C(=O)N[C@@H](Cc1c[nH]c2ccccc12)C(=O)N[C@@H](CC(C)C)C(=O)N[C@@H](CC(C)C)C(=O)N[C@@H](C)C(=O)NCC(=O)NCC(=O)N1CCC[C@H]1C(=O)N[C@@H](CO)C(=O)N[C@@H](CO)C(=O)NCC(=O)N[C@@H](C)C(=O)N1CCC[C@H]1C(=O)N1CCC[C@H]1C(=O)N1CCC[C@H]1C(=O)N[C@@H](CO)C(=O)N[C@H](CCCCN)C(N)=O)C(C)C [mt-398]
EC50 ([1]; Table 4, read-out: GLP-1R EC50): 0.0078 nM
EC50 ([2]; Table 4): 3.74 nM
EC50 ([3]; Table 4): 0.0031 nM

E3K16AIB2,20K10(C16) (Y[Aib]EGTFTSDK(C16 acyl)SIYLDKQAA[Aib]EFVNWLLAGGPSSGAPPPS-NH2) [MT-270]
% Relative Activity GLP-1R [1, 6]: 212%
% Relative Activity GLP-1R ([1]; Table 9): 211.8%
% Relative Activity at GR [2, 6]: 0.1%
% Relative Activity at GR ([2]; Table 9): 0.06%
% Relative Activity at GIPR [3, 6]: 163%
% Relative Activity at GIPR ([3]; Table 9): 163.3%

mt-219: as mt-217 with Arg as the amino acid spacer; SEQ ID NO: 21 (Y[Aib]QGTFTSDYSIYLDEQAAKEFVK([Arg-Ac‑Cys-PEG40kDa])FLLAGGPSSGAPPPS-NH2; lactam 16-20)
GLP-1R relative activity ([1]; Table 5): 16.56%
EC50 ([2]; Table 5): 17.6 nM
GR relative activity ([2]; Table 5): 0.65%
GIPR relative activity ([3]; Table 5): .31%

CSCC[C@H](NC(=O)[C@H](CC(C)C)NC(=O)[C@H](Cc1c[nH]c2ccccc12)NC(=O)[C@H](CCC(N)=O)NC(=O)[C@@H](NC(=O)[C@H](Cc1ccccc1)NC(=O)[C@H](CC(=O)O)NC(=O)[C@H](CCC(N)=O)NC(=O)[C@H](C)NC(=O)[C@H](CCCNC(=N)N)NC(=O)[C@H](CCCNC(=N)N)NC(=O)[C@@H]1CCC(=O)NCCCC[C@H](NC(=O)[C@H](CO)NC(=O)[C@H](Cc2ccc(O)cc2)NC(=O)[C@H](CCC(=O)O)NC(=O)[C@H](CO)NC(=O)[C@@H](NC(=O)[C@@H](O)Cc2ccccc2)[C@@H](C)O)C(=O)N[C@@H](Cc2ccc(O)cc2)C(=O)N[C@@H](CC(C)C)C(=O)N[C@@H](CC(=O)O)C(=O)N1)C(C)C)C(=O)N[C@@H](CC(N)=O)C(=O)N[C@H](C(=O)NCC(=O)N1CCC[C@H]1C(=O)N[C@@H](CO)C(=O)N[C@@H](CO)C(=O)NCC(=O)N[C@@H](C)C(=O)N1CCC[C@H]1C(=O)N1CCC[C@H]1C(=O)N1CCC[C@H]1C(=O)N[C@@H](CO)C(N)=O)[C@@H](C)O [[PLA6, E9, K12E16(Lactam)] (HELM PEPTIDE1{[O=C([C@@H](O)Cc1ccccc1)[*:2]].T.S.E.Y.S.K.Y.L.D.E.R.R.A.Q.D.F.V.Q.W.L.M.N.T.G.P.S.S.G.A.P.P.P.S.[am]}$PEPTIDE1,PEPTIDE1,7:R3-11:R3$$$V2.0)
EC50 ([1]; GLP-1 EC50 (nM), Table C): 6 nM
EC50 ([1]; GLP-1 ECso (nM), Table A): 6 nM
IC50 [4]: 72 nM

mt-217: lactam 16-20 glucagon analog, Lys24 carrying Ala spacer, acetylated Cys and 40 kDa PEG; SEQ ID NO: 19 (Y[Aib]QGTFTSDYSIYLDEQAAKEFVK([Ala-Ac‑Cys-PEG40kDa])FLLAGGPSSGAPPPS-NH2; lactam 16-20)
GLP-1R relative activity ([1]; Table 5): 11.26%
EC50 ([2]; Table 5): 13.9 nM
GR relative activity ([2]; Table 5): 0.82%
GIPR relative activity ([3]; Table 5): 0.20%

mt-218: as mt-217 with Glu as the amino acid spacer; SEQ ID NO: 20 (Y[Aib]QGTFTSDYSIYLDEQAAKEFVK([Glu-Ac‑Cys-PEG40kDa])FLLAGGPSSGAPPPS-NH2; lactam 16-20)
GLP-1R relative activity ([1]; Table 5): 7.40%
EC50 ([2]; Table 5): 16.3 nM
GR relative activity ([2]; Table 5): 0.70%
GIPR relative activity ([3]; Table 5): 0.13%

mt-225: as mt-217 but modified Lys at position 40 and Asn at position 24; SEQ ID NO: 359 (Y[Aib]QGTFTSDYSIYLDEQAAKEFVNWLLAGGPSSGAPPPSK([Ala-Ac‑Cys-PEG40kDa])-NH2; lactam 16-20)
GLP-1R relative activity ([1]; Table 5): 29.59%
EC50 ([2]; Table 5): 2.71 nM
GR relative activity ([2]; Table 5): 1.99%
GIPR relative activity ([3]; Table 5): 0.90%

mt-220: as mt-217 with Phe as the amino acid spacer; SEQ ID NO: 22 (Y[Aib]QGTFTSDYSIYLDEQAAKEFVK([Phe-Ac‑Cys-PEG40kDa])FLLAGGPSSGAPPPS-NH2; lactam 16-20)
GLP-1R relative activity ([1]; Table 5): 13.89%
EC50 ([2]; Table 5): 9.67 nM
GR relative activity ([2]; Table 5): 1.18%
GIPR relative activity ([3]; Table 5): 0.19%

K40-C16 (Y[Aib]QGTFTSDYSIYLDKQAA[Aib]EFVNWLLAGGPSSGAPPPSK(C16 acyl)-NH2) [MT-278]
% Relative Activity GLP-1R ([1]; Table 9): 459.5%
% Relative Activity at GR ([2]; Table 9): 588.4%
% Relative Activity at GIPR ([3]; Table 9): 846.4%

mt-228: as mt-220 but modified Lys at position 40 and Asn at position 24; SEQ ID NO: 24 (Y[Aib]QGTFTSDYSIYLDEQAAKEFVNWLLAGGPSSGAPPPSK([Phe-Ac‑Cys-PEG40kDa])-NH2; lactam 16-20)
GLP-1R relative activity ([1]; Table 5): 19.86%
EC50 ([2]; Table 5): 5.36 nM
GR relative activity ([2]; Table 5): 1.01%
GIPR relative activity ([3]; Table 5): 0.75%

mt-226: as mt-218 but modified Lys at position 40 and Asn at position 24; SEQ ID NO: 23 (Y[Aib]QGTFTSDYSIYLDEQAAKEFVNWLLAGGPSSGAPPPSK([Glu-Ac‑Cys-PEG40kDa])-NH2; lactam 16-20)
GLP-1R relative activity ([1]; Table 5): 29.90%
EC50 ([2]; Table 5): 3.46 nM
GR relative activity ([2]; Table 5): 1.56%
GIPR relative activity ([3]; Table 5): 1.16%

E3C24-PEG-K40-C14 (Y[Aib]EGTFTSDYSIYLDKQAA[Aib]EFVC(PEG 40 kDa)WLLAGGPSSGAPPPSK(Myristoyl)-NH2) [MT-353]
% Relative Activity GLP-1R ([1]; Table 9): 128.6%
% Relative Activity at GR ([2]; Table 9): 0.17%
% Relative Activity at GIPR ([3]; Table 9): 102.9%

Reference: US20140107021A1 (priority 2010, published 2014)
